Results taken from paper PMC10522483.

Target: S. lophii 70S ribosome (Spraguea lophii (endogenous in spores))
Test: cryo-EM structure; electron cryo-tomography and subtomogram averaging of ribosomes in situ in polar tubes of spores germinated on the grid; dimer map 14.3 Å (C2 symmetry, 1,191 particles), half-dimer map 10.8 Å; single-particle atomic model fitted into the maps

- percent of ribosome particles in 100S dimers: 80%
- stoichiometry N: 2
Substance: S. lophii 70S ribosome (complex)
